Results reported in US7893027B2, “Treatment of ocular wounds and ulcers” (The Board of Regents of the University of Oklahoma, priority 2002, dated 2011).

Key:
[1] = tested on: ICAM-1; experiment: Flow cytometry of ICAM-1 expression on HCEC; format: cell-based, human; details: for Upregulation of ICAM-1: 1000 ng/ml
Method: Flow cytometry was used to assess the upregulation of ICAM-1 and VCAM-1 on HCEC in response to CAP37 treatment. HCEC were cultured as described above and treated with CAP37 (0-2000 ng/ml) for 0, 2, 6, 24, 48 and 72 hr. A corresponding culture was left untreated at each time point. Following treatment with CAP37, cells were detached with 5 mM EDTA (pH 7.4, Fisher Scientific), washed twice in PBS and fixed with 0.125% paraformaldehyde (J.T. Baker, Phillipsburg, N.J.) overnight at 4° C. The cells were washed in PBS and then incubated in 0.5% normal goat serum and 0.5% BSA in PBS for 30 min to block non-specific binding sites. For determination of ICAM-1 expression, cells were incubated in the primary antibody (FITC-labeled mouse anti-human ICAM-1, BIOSOURCE, Camarillo, Calif.) at 10^6 cells/10 μl at 4° C. for 1 hr. Cells were washed in PBS and analyzed by flow cytometry (FACSTAR, BECTON DICKINSON, San Jose, Calif.). For detection of VCAM-1 expression, cells were incubated with unlabeled primary antibody (monoclonal mouse anti human VCAM-1, ENDOGEN, Woburn, Mass. at 2 μg/10^6 cells) followed by FITC-labeled goat anti-mouse IgG (PHARMINGEN, San Diego, Calif.) at 5 μg/10^6 cells and incubated at 4° C. for 30 min. The isotype control for these studies was FITC-labeled mouse isotype IgG1 (PHARMINGEN). The positive control used in these studies was TNF-α (5 ng/ml). At least ten thousand cells were analyzed for each sample.

[2] = tested on: human corneal epithelial cells (HCEC); experiment: Modified Boyden chamber chemotaxis / checkerboard assay; format: cell-based; details: for Number of cells migrated: 4 hr
Method: Human corneal epithelial cells were cultured in basic medium overnight, detached using trypsin-EDTA as described above and resuspended at a final concentration of 8×10^5 cells/ml. Chemotaxis assays were performed using the modified Boyden chamber assay described previously (13). Briefly, 200 (μl of cell suspension was added to the upper chamber and chemoattractants including recombinant CAP37 (10-2000 ng/ml) and the positive control recombinant human Platelet Derived Growth Factor-BB (PDGF-BB, 10 ng/ml, Collaborative Biomedical Products, Bedford Mass.) in 0.1% BSA (endotoxin-low-Sigma, St. Louis) in Geys' Buffer (GIBCO) were added to the lower chamber. The chambers were separated by an 8.0 μm pore membrane (13 mm polyvinylpyrrolidone-free, Whatman, Clifton, N.J.). Membranes were pre-coated with 50 μg/ml collagen type I rat tail (Collaborative Biomedical Products) in 0.02N acetic acid at room temperature for 1 hr and then air dried. Membranes were re-hydrated in basic cell culture medium immediately prior to commencement of each experiment. The negative control in these experiments was 0.1% BSA in Geys' buffer. The chambers were incubated in a humidified atmosphere (37° C., 5% CO2) for 4 hr, the filters were removed, stained with DIFF-QUICK (Dade Behring, Düdingen, Switzerland) and mounted with Permount (FISHER SCIENTIFIC, Pittsburgh, Pa.). The filters were viewed under oil immersion (×400 magnification, BH-2, Olympus, Lake Success, N.Y.) and the total numbers of cells migrated through to the underside of the filter were counted in five different fields on each slide. Triplicates were set up for each experimental point.
To assess whether CAP37 had chemokinetic properties, various concentrations of CAP37 (0, 10, 100 and 1000 ng/ml) were added to the upper chamber as well as to the lower chamber (0, 10, 100, 500, 1000 ng/ml) and a checkerboard assay performed according to the methodology of Zigmond and Hirsch (46).

B1: CAP37: Cationic Antimicrobial Protein of Mr 37 kDa; recombinant protein from human 293 cells, identical to native PMN-derived CAP37 (SEQ ID NO:1) (protein, listed as Homo sapiens)
chain: IVGGRKARPRQFPFLASIQNQGRHFCGGALIHARFVMTAASCFQSQNPGVSTVVLGAYDLRRRERQSRQTFSISSMSENGYDPQQNLNDLMLLQLDREANLTSSVTILPLPLQNATVEAGTRCQVAGWGSQRSGGRLSRFPRFVNVTVTPEDQCRPNNVCTGVLTRRGGICNGDGGTPLVCEGLAHGVASFSLGPCGRGPDFFTRVALFRDWIDGVLNNPGP
[1]; 2 hr
  Upregulation of ICAM-1: no upregulation of ICAM-1 could be detected
[1]; 6 hr
  Upregulation of ICAM-1: significant upregulation of ICAM-1
[1]; 24 hr
  Upregulation of ICAM-1: still above the untreated levels
[1]; 1000-2000 ng/ml, TNF-α 5 ng/ml as positive control
  ICAM-1 levels relative to positive control: comparable to those obtained with the positive control TNF-α
[1]; HCEC, 6 hr, flow cytometry
  Concentration giving maximum upregulation of ICAM-1: 1000 to 2000 ng/mL
[1]; concentrations between 10 and 500 ng/ml
  ICAM-1 levels: Lower, yet significant levels of ICAM-1
[2]; 2000 ng/ml
  Chemotactic activity: reduced but still measurably active
[2]; Boyden chamber
  Concentration range of maximal chemotactic activity: 500 to 1000 ng/mL
[2]; CAP37 above the filter 0 ng/ml, below the filter 10 ng/ml
  Number of cells migrated: 28.56 ± 7.64
[2]; CAP37 above the filter 0 ng/ml, below the filter 100 ng/ml
  Number of cells migrated: 39.82 ± 6.20
[2]; CAP37 above the filter 0 ng/ml, below the filter 500 ng/ml
  Number of cells migrated: 68.89 ± 7.70
[2]; CAP37 above the filter 0 ng/ml, below the filter 1000 ng/ml
  Number of cells migrated: 67.34 ± 8.42
[2]; CAP37 above the filter 10 ng/ml, below the filter 10 ng/ml
  Number of cells migrated: 27.63 ± 3.03
[2]; CAP37 above the filter 10 ng/ml, below the filter 100 ng/ml
  Number of cells migrated: 39.80 ± 6.93
[2]; CAP37 above the filter 10 ng/ml, below the filter 500 ng/ml
  Number of cells migrated: 52.40 ± 15.76
[2]; CAP37 above the filter 10 ng/ml, below the filter 1000 ng/ml
  Number of cells migrated: 62.73 ± 9.66
[2]; CAP37 above the filter 100 ng/ml, below the filter 100 ng/ml
  Number of cells migrated: 36.63 ± 6.48
[2]; CAP37 above the filter 100 ng/ml, below the filter 1000 ng/ml
  Number of cells migrated: 48.57 ± 15.58
[2]; CAP37 above the filter 1000 ng/ml, below the filter 100 ng/ml
  Number of cells migrated: 28.08 ± 2.76
[2]; CAP37 above the filter 1000 ng/ml, below the filter 1000 ng/ml
  Number of cells migrated: 38.13 ± 6.07
[2]; PDGF-BB 10 ng/ml as positive control
  Levels of migration relative to positive control: comparable to those obtained with the positive control, PDGF
